Experimental data as given in the supplement of paper PMC9170038.

Experiments:
[1] = system: MS2 coat protein; assay: apparent KD of MS2 coat protein, switch OFF state (with FMN for OFF switches, without FMN for ON switches); designed switch direction (-1 OFF switch, 1 ON switch): -1; higher = weaker reporter binding; conditions: FMN input: 0 or 200 uM; Eterna round: R93 (includes R88 designs)
Procedure, shortened: (§1)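 The buffer was 100 mM Tris-HCl pH 7.5 with 80 mM KCl and 4 mM MgCl2, used without or with constant ligand. In it, RNA switches transcribed on-chip from Illumina sequencing clusters were titrated with SNAP-549-labelled MS2 coat protein in twofold steps from 0.7 or 1.5 nM to 3 µM. Apparent KD for each design is the median of its normalised cluster binding-curve fits.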

[2] = system: MS2 coat protein; assay: apparent KD of MS2 coat protein, switch ON state; designed switch direction (-1 OFF switch, 1 ON switch): -1; higher = weaker reporter binding; conditions: FMN input: 0 or 200 uM; Eterna round: R93 (includes R88 designs)
Procedure, shortened: as §1

Sequence: AAGAAACAUGAGGAUCACCCAUGUGAGGAUAUCAAAAAGAAAAGAAAAGAAAGAAGAAUGAGAAGGCACAAAGG [Mery—]
- apparent KD of MS2 coat protein [1]: 32.5 nM
- apparent KD of MS2 coat protein [2]: 30.5 nM

Sequence: AAGAAACAUGAGGAUCACCCAUGUGAGGAUAUGCAAAAGAAAAGAAAAGAAAGAAGAAGCAGAAGGCACAAAGG [Neferkahor]
- apparent KD of MS2 coat protein [1]: 138 nM
- apparent KD of MS2 coat protein [2]: 49.1 nM

Sequence: AAGAAAGGAGGAUAUACAUGAGGAUCACCCAUGUAAAAGAAAGAGGGAAAAGAGAAAAGUAGAAGGCCUAAGAA [Ptolemy IX Soter II]
- apparent KD of MS2 coat protein [1]: 39.1 nM
- apparent KD of MS2 coat protein [2]: 30.8 nM

Sequence: AAGAACACAGGAUAUACAUGAGGAUCACCCAUGUAAAAGAAAGAAAGGGAAAAGAAAAGUAGAAGGGUGAAGAA [Aakheperre Pasebakhenniut I]
- apparent KD of MS2 coat protein [1]: 72.6 nM
- apparent KD of MS2 coat protein [2]: 40 nM

Sequence: AAGAACAUAGGAUAUACAAAAUAAAAGAAAAGAAAGAAAGAACAUGAGGAUCACCCAUGUAGAAGGAUGAAGAA [Khakaure Senusret III]
- apparent KD of MS2 coat protein [1]: 24.4 nM
- apparent KD of MS2 coat protein [2]: 39 nM

Sequence: AAGAACCGAGGAUAUACAUGAAAGAAAGAAAAGAAAAGAAAACAUGAGGAUCACCCAUGUAGAAGGCGGAAGAA [EteRNA is fun!]
- apparent KD of MS2 coat protein [1]: 35.3 nM
- apparent KD of MS2 coat protein [2]: 27.4 nM

Sequence: AAGAACCUAGGAUAUACAUGAAAGAAAGAAAAGAAAAGAAAACAUGAGGAUCACCCAUGUAGAAGGAGGUAGAA [EteRNA is fun!]
- apparent KD of MS2 coat protein [1]: 50.5 nM
- apparent KD of MS2 coat protein [2]: 26.7 nM

Sequence: AAGAACCUAGGAUAUACAUGAGGAUCACCCAUGUAAAAGAAAGAAAAGGGAAAGAAAAGUAGAAGGAGGAAGAA [Menmire-setpenre Amenmesse]
- apparent KD of MS2 coat protein [1]: 22.2 nM
- apparent KD of MS2 coat protein [2]: 18.4 nM

Sequence: AAGAACGAAGGAUAUACAUGAAAGAAAGAAAAGAAAAGAAAACAUGAGGAUCACCCAUGUAGAAGGUCGUAGAA [EteRNA is fun!]
- apparent KD of MS2 coat protein [1]: 28.8 nM
- apparent KD of MS2 coat protein [2]: 26.2 nM

Sequence: AAGAACGGAGGAUAUACAAAAUAAAAGAAAAGAAAGAAAGAACAUGAGGAUCACCCAUGUAGAAGGUCGAAGAA [Seth Meribre]
- apparent KD of MS2 coat protein [1]: 20.8 nM
- apparent KD of MS2 coat protein [2]: 14.9 nM

Sequence: AAGAACGUAGGAUAUACAUGAGGAUCACCCAUGUAAAAGAAAGAAAAGGGAAAGAAAAGUAGAAGGACGAAGAA [Usermaatre-setpenre Ramesses II]
- apparent KD of MS2 coat protein [1]: 34.4 nM
- apparent KD of MS2 coat protein [2]: 42.1 nM

Sequence: AAGAACUAAGGAUAUACAAGGAAGAAAGAAAAGAAAAGAAAACAUGAGGAUCACCCAUGUAGAAGGUAGUAGAA [EteRNA is fun!]
- apparent KD of MS2 coat protein [1]: 24.7 nM
- apparent KD of MS2 coat protein [2]: 28.8 nM

Sequence: AAGAACUGAGGAUAUGCAAAAGGGAAAGCUGAUCCUCAUCUACAUGAGGAUCACCCAUGUAGAAGGCGGGAAAU [Aveerve]
- apparent KD of MS2 coat protein [1]: 47.7 nM
- apparent KD of MS2 coat protein [2]: 63.4 nM

Sequence: AAGAACUUAGGAUAUACAAAAUAAAAGAAAAGAAAGAAAGAACAUGAGGAUCACCCAUGUAGAAGGGAGAAGAA [Nimaatre Amenemhat III]
- apparent KD of MS2 coat protein [1]: 29.8 nM
- apparent KD of MS2 coat protein [2]: 55.9 nM

Sequence: AAGAAGAGAGGAUAUACAUGAAAGAAAGAAAAGAAAAGAAAACAUGAGGAUCACCCAUGUAGAAGGCUCAAGAA [EteRNA is fun!]
- apparent KD of MS2 coat protein [1]: 40.6 nM
- apparent KD of MS2 coat protein [2]: 39.4 nM

Sequence: AAGAAGAGAGGAUAUACUAAAGAAAUGAAAAGAAAGAAAGAACAUGAGGAUCACCCAUGUAGAAGGCUCAAGAA [Snaaib]
- apparent KD of MS2 coat protein [1]: 18.1 nM
- apparent KD of MS2 coat protein [2]: 27.8 nM

Sequence: AAGAAGAGAGGAUAUACUAAAGAAAUGAAAAGAAAUAAAGAACAUGAGGAUCACCCAUGUAGAAGGCUCAAGAA ['Ammu Ahotepre]
- apparent KD of MS2 coat protein [1]: 21 nM
- apparent KD of MS2 coat protein [2]: 25.5 nM

Sequence: AAGAAGCAAGGAUAUACAAAAUAAAAGAAAAGAAAGAAAGAACAUGAGGAUCACCCAUGUAGAAGGUGCAAGAA [Djedkheperew]
- apparent KD of MS2 coat protein [1]: 31 nM
- apparent KD of MS2 coat protein [2]: 31.1 nM

Sequence: AAGAAGCUAGGAUAUACAAAAUAAAAGAAAAGAAAGAAAGAACAUGAGGAUCACCCAUGUAGAAGGAGCAAGAA [Sebkay]
- apparent KD of MS2 coat protein [1]: 21.4 nM
- apparent KD of MS2 coat protein [2]: 31.3 nM

Sequence: AAGAAGGAAGGAUAUACAAAAUAAAAGAAAAGAAAGAAAGAACAUGAGGAUCACCCAUGUAGAAGGUCCAAGAA [Sedjefakare]
- apparent KD of MS2 coat protein [1]: 34.7 nM
- apparent KD of MS2 coat protein [2]: 29.8 nM

Sequence: AAGAAGGCAGGAUAUACAUGAGGAUCACCCAUGUAAAAGAAAGAAGGGAAAGAGAAAAGUAGAAGGGCCAAGAA [Hedjkheperre-setpenre Takelot II]
- apparent KD of MS2 coat protein [1]: 68.4 nM
- apparent KD of MS2 coat protein [2]: 43.8 nM

Sequence: AAGAAGGGAGGAUAUACAAAAUAAAAGAAAAGAAAGAAAGAACAUGAGGAUCACCCAUGUAGAAGGCCCAAGAA [Iufni]
- apparent KD of MS2 coat protein [1]: 21.2 nM
- apparent KD of MS2 coat protein [2]: 22.3 nM

Sequence: AAGAAGGGAGGAUAUACAUGAGGAUCACCCAUGUAAAAGAAAGAAAAGGGAAAGAAAAGUAGAAGGCCCAAGAA [Seqenenre Tao]
- apparent KD of MS2 coat protein [1]: 40.2 nM
- apparent KD of MS2 coat protein [2]: 36.9 nM

Sequence: AAGAAGGUAGGAUAUACUAAAGAAAUGAAAAGAAAUAAAGAACAUGAGGAUCACCCAUGUAGAAGGACCAAGAA [Webenre]
- apparent KD of MS2 coat protein [1]: 32.2 nM
- apparent KD of MS2 coat protein [2]: 25.8 nM

Sequence: AAGAAGGUAGGAUAUACUAGGGAAACUAAUGCAAAGAUAAAACAUGAGGAUCACCCAUGUAGAAGGGCCAGAAA [JR_Exc002_Sub017]
- apparent KD of MS2 coat protein [1]: 65.5 nM
- apparent KD of MS2 coat protein [2]: 40.8 nM

Sequence: AAGAAGUAAGGAUAUGCUGCUCGUCACAAAAGUGAUGAGUAGCAGAAGGUACAUGAGGAUCACCCAUGUAAAGA [JL eternac mod 3]
- apparent KD of MS2 coat protein [1]: 20.3 nM
- apparent KD of MS2 coat protein [2]: 26 nM

Sequence: AAGAAGUCAGGAUAUCGAAGACUGUCGAAAAGACAGUCGAACGAGAAGGGACAUGAGGAUCACCCAUGUGGAAG [Mat - Exaclusion 4 - Eli mod - D72]
- apparent KD of MS2 coat protein [1]: 321 nM
- apparent KD of MS2 coat protein [2]: 99.2 nM

Sequence: AAGAAGUCAGGAUAUGCCAGAGAUCACGAAAGUGAUGAGUAGCAGAAGGGACAUGAGGAUCACCCAUGUAAAGA [Opal 6]
- apparent KD of MS2 coat protein [1]: 46.5 nM
- apparent KD of MS2 coat protein [2]: 48.2 nM

Sequence: AAGAAGUCAGGAUAUGGAAAAGAAAAGAAAAGAAAAGAAAACCAGAAGGGACAUGAGGAUCACCCAUGUAAGAA [Xerxes I the Great]
- apparent KD of MS2 coat protein [1]: 28.1 nM
- apparent KD of MS2 coat protein [2]: 44.5 nM

Sequence: AAGAAGUGAGGAUAUACAUGAGGAUCACCCAUGUAAAAGAAAGAAAGGGAAAAGAAAAGUAGAAGGCGCAAGAA [Aakheperre Shoshenq V]
- apparent KD of MS2 coat protein [1]: 44.7 nM
- apparent KD of MS2 coat protein [2]: 34.1 nM

Sequence: AAGAAGUGAGGAUAUCGAAGACUGUCGAAAAGACAGUCGAACGAGAAGGCACAUGAGGAUCACCCAUGUAAGAA [Marsupial]
- apparent KD of MS2 coat protein [1]: 45 nM
- apparent KD of MS2 coat protein [2]: 34.4 nM

Sequence: AAGAAGUGAGGAUAUCGAAGACUGUCGAAAAGACAGUCGAACGAGAAGGCACAUGAGGAUCACCCAUGUGAAAA [Marsurpial 65% 4]
- apparent KD of MS2 coat protein [1]: 33.1 nM
- apparent KD of MS2 coat protein [2]: 22.1 nM

Sequence: AAGAAGUUAGGAUAUGCUGCUCGUCACAAAAGUGAUGAGUAGCAGAAGGGACAUGAGGAUCACCCAUGUAAAGA [JL eternac mod 5]
- apparent KD of MS2 coat protein [1]: 24.1 nM
- apparent KD of MS2 coat protein [2]: 36.7 nM

Sequence: AAGAAUCGAGGAUAUACAUGAAAGAAAGAAAAGAAAAGAAAACAUGAGGAUCACCCAUGUAGAAGGCGAUAGAA [EteRNA is fun!]
- apparent KD of MS2 coat protein [1]: 28.7 nM
- apparent KD of MS2 coat protein [2]: 21.3 nM

Sequence: AAGAAUGCAGGAUAUACAAAAUAAAAGAAAAGAAAGAAAGAACAUGAGGAUCACCCAUGUAGAAGGGCGAAGAA [Sewadjkare Hori]
- apparent KD of MS2 coat protein [1]: 34.4 nM
- apparent KD of MS2 coat protein [2]: 44.4 nM

Sequence: AAGAAUGCAGGAUAUACAUGAGGAUCACCCAUGUAAAAGAAAGAAGGGAAAGAGAAAAGUAGAAGGGCAAAGAA [Bakare Tantamani]
- apparent KD of MS2 coat protein [1]: 47.2 nM
- apparent KD of MS2 coat protein [2]: 36 nM

Sequence: AAGAAUGGAGGAUAUACAAAAUAAAAGAAAAGAAAGAAAGAACAUGAGGAUCACCCAUGUAGAAGGCCGAAGAA [Mersekhemre Ined]
- apparent KD of MS2 coat protein [1]: 37.3 nM
- apparent KD of MS2 coat protein [2]: 14.6 nM

Sequence: AAGAAUGGAGGAUAUACAUGAGGAUCACCCAUGUAAAAGAAAGAAAGGGAAAAGAAAAGUAGAAGGCCAAAGAA [Hedjkheperre Harsiese]
- apparent KD of MS2 coat protein [1]: 42.1 nM
- apparent KD of MS2 coat protein [2]: 46.6 nM

Sequence: AAGAAUUGAGGAUAUACAAGGAAGAAAGAAAAGAAAAGAAAACAUGAGGAUCACCCAUGUAGAAGGCAAUAGAA [EteRNA is fun!]
- apparent KD of MS2 coat protein [1]: 12.5 nM
- apparent KD of MS2 coat protein [2]: 23.5 nM

Sequence: AAGACUAGAGGAUAUACAUGAGGAUCACCCAUGUAACUGUCAGAAAACUGACGGAGAAGUAGAAGGCUAGUCAA [Mat - Exclusion 3 - JL mod - D86]
- apparent KD of MS2 coat protein [1]: 21.2 nM
- apparent KD of MS2 coat protein [2]: 16.9 nM

Sequence: AAGACUAGAGGAUAUACAUGAGGAUCACCCAUGUAACUGUCAGGUGACUGACGGAGAAGUAGAAGGCUAGUCAA [Mat - Exclusion 3 - JL mod - D83]
- apparent KD of MS2 coat protein [1]: 19.9 nM
- apparent KD of MS2 coat protein [2]: 14.6 nM

Sequence: AAGACUAGAGGAUAUACAUGAGGAUCACCCAUGUAACUGUCAGGUGACUGACGGAGAUGUAGAAGGCUAGUCAA [Wider Swing]
- apparent KD of MS2 coat protein [1]: 41.2 nM
- apparent KD of MS2 coat protein [2]: 17.2 nM

Sequence: AAGAGGCGAGGAUAUACAUGAGGAUCACCCAUGUAAUCCGGAUAAGGAAGCAUGUCGUGUAGAAGGUGCCAUGA [water's exclusion 3 last]
- apparent KD of MS2 coat protein [1]: 20.2 nM
- apparent KD of MS2 coat protein [2]: 19.2 nM

Sequence: AAGAGUACAGGAUAUACAUGAGGAUCACCCAUGUGAAAAUUAAGUGGCGUACAACAAAGUAGAAGGGUACUGGA [Ruby 51]
- apparent KD of MS2 coat protein [1]: 41.7 nM
- apparent KD of MS2 coat protein [2]: 21.9 nM

Sequence: AAGAUGUCAGGAUAUGUGUAAAGAAUAAAAGAAAUAACAACACAGAAGGGACAUGAGGAUCACCCAUGUCAACA [May 34]
- apparent KD of MS2 coat protein [1]: 19.8 nM
- apparent KD of MS2 coat protein [2]: 26.9 nM
